Measurements from patent publication US11026999B2, “Insulin glargine/lixisenatide fixed ratio formulation” (SANOFI-AVENTIS DEUTSCHLAND GMBH, priority 2013, dated 2021).

Test system: type 2 diabetic patients
Test: Treatment-emergent adverse events, SAEs, deaths, TEAEs leading to withdrawal (Example 1)
Settings: Safety population
Protocol: Safety: The safety analysis was conducted on the safety population, defined as all randomized patients who received at least one dose of IMP (regardless of the amount of treatment administered). The evaluation of AEs, laboratory, vital sign, and ECG data was descriptive.

Gly(A21)-Arg(B31)-Arg(B32)-human insulin [Insulin Glargine]
12 (7.4%) n (%): TEAE: HLT: Headaches NEC
7 (4.3%) n (%): TEAE: HLGT: Gastrointestinal motility and defaecation conditions | TEAE: HLGT: Gastrointestinal signs and symptoms
4 (2.5%) n (%): TEAE: HLGT: General system disorders NEC
2 (1.2%) n (%): TEAE: HLGT: Depressed mood disorders and disturbances | TEAE: HLGT: Gastrointestinal investigations | TEAE: HLGT: Inner ear and VIIIth cranial nerve disorders | TEAE: HLGT: Musculoskeletal and connective tissue deformities (incl intervertebral disc disorders) | TEAE: HLGT: Peripheral neuropathies | TEAE: HLGT: Respiratory disorders NEC | TEAE: HLGT: Spinal cord and nerve root disorders | TEAE: HLGT: Urolithiases | TEAE: HLGT: Vascular hypertensive disorders | TEAE: HLT: Chronic polyneuropathies | TEAE: HLT: Depressive disorders | TEAE: HLT: Digestive enzymes | TEAE: HLT: Flatulence, bloating and distension | TEAE: HLT: Inner ear signs and symptoms | TEAE: HLT: Intervertebral disc disorders NEC | TEAE: HLT: Lumbar spinal cord and nerve root disorders | TEAE: HLT: Osteoarthropathies | TEAE: HLT: Renal lithiasis | TEAE: HLT: Vascular hypertensive disorders NEC
none: Patients with any TEAE leading to permanent treatment discontinuation (listed as insulin glargine)
6 (3.7%) n (%): Patients with any treatment emergent SAE | TEAE: HLGT: Joint disorders | TEAE: HLT: Influenza viral infections | Patients with any treatment emergent SAE (listed as insulin glargine)
3 (1.9%) n (%): TEAE: HLGT: Musculoskeletal and connective tissue disorders NEC | TEAE: HLT: Joint related signs and symptoms | TEAE: HLT: Musculoskeletal and connective tissue pain and discomfort | TEAE: HLT: Neurological signs and symptoms NEC | TEAE: HLT: Oedema NBC
1 (0.6%) n (%): TEAE: HLGT: Administration site reactions | TEAE: HLGT: Appetite and general nutritional disorders | TEAE: HLGT: Cardiac arrhythmias | TEAE: HLT: Appetite disorders | TEAE: HLT: Dyspeptic signs and symptoms | TEAE: HLT: Gastrointestinal atonic and hypomotility disorders NEC | TEAE: HLT: Injection site reactions | TEAE: HLT: Lower respiratory tract and lung infections | TEAE: HLT: Nausea and vomiting symptoms | TEAE: HLT: Supraventricular arrhythmias | Treatment emergent SAE: HLGT: Cardiac and vascular investigations (excl enzyme tests) | Treatment emergent SAE: HLGT: Cardiac arrhythmias | Treatment emergent SAE: HLGT: Depressed mood disorders and disturbances | Treatment emergent SAE: HLGT: Joint disorders | Treatment emergent SAE: HLGT: Neurological disorders NEC | Treatment emergent SAE: HLT: Depressive disorders | Treatment emergent SAE: HLT: ECG investigations | Treatment emergent SAE: HLT: Neurological signs and symptoms NEC | Treatment emergent SAE: HLT: Osteoarthropathies | Treatment emergent SAE: HLT: Supraventricular arrhythmias
9 (5.6%) n (%): TEAE: HLGT: Injuries NEC
0 n (%): Patients with any TEAE leading to permanent treatment discontinuation | TEAE leading to permanent treatment discontinuation: HLGT: Allergic conditions | TEAE leading to permanent treatment discontinuation: HLGT: Deliria (incl confusion) | TEAE leading to permanent treatment discontinuation: HLGT: Gastrointestinal signs and symptoms | TEAE leading to permanent treatment discontinuation: HLGT: Headaches | TEAE leading to permanent treatment discontinuation: HLGT: Neurological disorders NEC | TEAE leading to permanent treatment discontinuation: HLGT: Reproductive neoplasms female malignant and unspecified | TEAE leading to permanent treatment discontinuation: HLT: Allergic conditions NEC | TEAE leading to permanent treatment discontinuation: HLT: Confusion and disorientation | TEAE leading to permanent treatment discontinuation: HLT: Headaches NEC | TEAE leading to permanent treatment discontinuation: HLT: Nausea and vomiting symptoms | TEAE leading to permanent treatment discontinuation: HLT: Neurological signs and symptoms NEC | TEAE leading to permanent treatment discontinuation: HLT: Ovarian neoplasms malignant (excl germ cell) | TEAE: HLGT: Lipid metabolism disorders | TEAE: HLGT: Sleep disorders and disturbances | TEAE: HLT: Asthenic conditions | TEAE: HLT: Coughing and associated symptoms | TEAE: HLT: Disturbances in initiating and maintaining sleep | TEAE: HLT: Elevated triglycerides | Treatment emergent SAE: HLGT: Bacterial infectious disorders | Treatment emergent SAE: HLGT: Bone and joint injuries | Treatment emergent SAE: HLGT: Coronary artery disorders | Treatment emergent SAE: HLGT: Musculoskeletal and connective tissue deformities (incl intervertebral disc disorders) | Treatment emergent SAE: HLGT: Musculoskeletal and connective tissue disorders NEC | Treatment emergent SAE: HLGT: Peripheral neuropathies | Treatment emergent SAE: HLGT: Reproductive neoplasms female malignant and unspecified | Treatment emergent SAE: HLGT: Spinal cord and nerve root disorders | Treatment emergent SAE: HLGT: Urolithiases | Treatment emergent SAE: HLT: Bacterial infections NEC | Treatment emergent SAE: HLT: Chronic polyneuropathies | Treatment emergent SAE: HLT: Intervertebral disc disorders NEC | Treatment emergent SAE: HLT: Ischaemic coronary artery disorders | Treatment emergent SAE: HLT: Lumbar spinal cord and nerve root disorders | Treatment emergent SAE: HLT: Musculoskeletal and connective tissue pain and discomfort | Treatment emergent SAE: HLT: Ovarian neoplasms malignant (excl germ cell) | Treatment emergent SAE: HLT: Rate and rhythm disorders NEC | Treatment emergent SAE: HLT: Upper limb fractures and dislocations | Treatment emergent SAE: HLT: Urinary tract lithiasis (excl renal)
13 (8.0%) n (%): TEAE: HLGT: Headaches
5 (3.1%) n (%): TEAE: HLGT: Neurological disorders NEC | TEAE: HLT: Skin injuries NEC
